Results from the supplement of paper PMC9170038.

These sequences were tested on MS2 coat protein (assay: apparent KD of MS2 coat protein; higher = weaker reporter binding). Details: Eterna round: R107; input ligand: theophylline 2 mM.
Method in brief: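 Each design's apparent KD comes from the median of binding-curve fits to its normalised clusters. Those clusters carried RNA switches transcribed on-chip from Illumina sequencing clusters. SNAP-549-labelled MS2 coat protein was titrated onto them in twofold steps (0.7 or 1.5 nM to 3 µM; per step 0.8–1.5 h down to 10–20 min). Conditions were 100 mM Tris-HCl pH 7.5, 80 mM KCl, 4 mM MgCl2, without or with constant ligand.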
In the case of “GGGACACCGAGAAGGAGCGCAUCCAAACCACACAUGAGGAUCACCCAUGUAUAAAUAUGCAUGCAGGUAGGUCGCUCGGCGUCUC [Orordionbi]”, the “apparent KD of MS2 coat protein” value is reported as 0.134 µM. “GGUCUCGCGGGCGAUACCAGCUUGAUCGUACUGGCCUGGUACAUGAGGAUCACCCAUGUAAGCCCUUGGCAGCGCGCGCGAGACC [#1 Exclusion - Theophylline B Attempt #5 (HarryS)]” was tested, and the “apparent KD of MS2 coat protein” value was 0.0321 µM. “GCAUCCUAGUCGGCCGCCACUGCAAUUGUAGUACUGCUACAUGAACAUGAGGAUCACCCAUGUAGCAGGACCGGGACUAGGAUGC [(Trp1)-(TM)''-(TM)'-(Ms2)-(Trp2)_Design10]” was tested, and the “apparent KD of MS2 coat protein” value was 0.0685 µM. In the case of “UGUAUGUGAUCUGAUACCAGCCUCAUAGCUUGAGGAUCACCCAAGUGGAGCGGAAACGCUGGCCCUUGGCAGCAGAUCGCAUACU [TheoBS 1 #AlternativeMS2]”, the “apparent KD of MS2 coat protein” value is reported as 0.0135 µM. “CGGACAUGAGGAUCACCCAUGUACACUGAAGGAGCGUCGAGAACGACAGGUAGGUCGCAGGCUAAGGAAGGUGAUGCUCAAGAAG [Exclusion Arginine A GF5]” was tested, and the “apparent KD of MS2 coat protein” value was 0.0411 µM. For “AAAAUCCUACUUGAGGAUCACCCAGGUGAAGGAGCGCCCGAAAGGGCAGGUAGGUCGCACCUGAGGAUCACCCUGGUAAACCUAA [ArgEX 8 #DoubleMS2 #OpenEnded]”, the “apparent KD of MS2 coat protein” value was 0.185 µM. “AAAUAAAUACAUGAGGAUCACCCAUGUGAAGGAGCGCCCGUUAGGGCAGGUAGGUCGCGCAUGAAUAACUCCGUGCAAAAGCACA [ArgEX 19 #OpenEnded]” was tested, and the “apparent KD of MS2 coat protein” value was 0.0264 µM. With “UGCUACAUGAGGAUCACCCAUGUGGGUGAUACCAGCAUUCGUUUAUGCCCUUGGCAGCGCAGCCGAACCAAUCAUUCGGCAGAAA [Artiusar]” the “apparent KD of MS2 coat protein” value was 0.861 µM. “AGGGACAUGAGGAUCACCCAUGUUGAAACUCGAGGACCGGUACGGCCGCCACUCGUAUAAUCGAUGUCCAUUUGGGAUUCCGGCU [theeternabot_sameState_MS2_Trp_A_17]” was tested, and the “apparent KD of MS2 coat protein” value was 0.0391 µM. In the case of “GCUAGGUCAUCGGCCGCCACUAACGACGGUUCCAACAUGAGGAUCACCCAUGUGCCACAUGCGCAUAGGACCGGGAUGACCUAGC [SSTB NP+V+V2 #5]”, the “apparent KD of MS2 coat protein” value is reported as 0.0427 µM. For “UGUACUAUGUGAAGGAGCGCCACAUGAGGAUCACCCAUGUAAACAUGAGGAUCACCCAUGUGGCAGGUAGGUCGCACAUAGUACU [ArgBS - Double MS2 - I don't expect this to work]”, the “apparent KD of MS2 coat protein” value was 0.227 µM. In the case of “CACAGUGCGAAUUUGAAAUCGCACGAUCCUCGAGGACCGGUACGGCCGCCACUCGCGCGGGUCGUACAUGAGGAUCACCCAUGUC [Beertele]”, the “apparent KD of MS2 coat protein” value is reported as 0.907 µM.

Same assay, conditions: Eterna round: R107; input ligand: tryptophan 2.4 mM
With “UGUAUGUGAUCUGAUACCAGAGUGACGCGAAAGCGAAACCUGAGGAUCACCCUGGUAAAACUCCCUUGGCAGCAGAUCGCAUACU” the “apparent KD of MS2 coat protein” value was 0.0683 µM. For “UCGGGCAGAGCGGCCGCCACUGUUUGGCAUGCGGAUGACGGAACAUGAGGAUCACCCAUGUUGAUUAGGACCGGGCUUGCGGAGA [eefullin]”, the “apparent KD of MS2 coat protein” value was 0.037 µM. With “GCACCAGGUACGGAUACCAGCUAUAGGUACAUGUCAGGACAUGAGGAUCACCCAUGUGGUAGCCCUUGGCAGCUGUACCUGGUGC [EThB NP+V+V2 #2]” the “apparent KD of MS2 coat protein” value was 0.0191 µM. With “ACGUCCGGGUUAAUCGUGGGCAUGGUCGAUACCAGUAUUUUAAUCUACCCUUGGCAGCGACAUGAGGAUCACCCAUGUGCGAUGA [XTheo A #17]” the “apparent KD of MS2 coat protein” value was 0.017 µM. In the case of “CUAUAAAUAUGAAGGAGCGUCGAAAAUGGGUAAACAUGAGGAUCACCCAUGUAAAGGGAACGACAGGUAGGUCGCAUAUUUAUAG [AstromonsSSArgB#11]”, the “apparent KD of MS2 coat protein” value is reported as 0.219 µM. “AUAUAUACAUGAGGAUCACCCAUGUUAUUUCGAGGACCGGUACGGCCGCCACUCGAUAGAGUAGAAGUAUUUUGGGAUAGUUGAU [JR_SSTryptoA_Sub015]” was tested, and the “apparent KD of MS2 coat protein” value was 0.0156 µM. “AUAAAUAUAACCGAUACCAGCCUUAUACAUGAGGAUCACCCAUGUUAUGCUUCCUUUUUUGGCCCUUGGCAGCGGAAAUGGGUAA [AstrosSSTheB#2]” was tested, and the “apparent KD of MS2 coat protein” value was 0.0653 µM. For “AGCCAUGGAAACAUGGCGGCGGCUUGGGCGCGAGGACCGGUACGGCCGCCACUCGGGCAACAUGAGGAUCACCCAUGUUCCUCAU [ETA NP+V+V2 #18]”, the “apparent KD of MS2 coat protein” value was 0.161 µM. With “UUUUUUUUUUACAUGAGGAUCACCCAUGUUCGAGGACCGGUACGGCCGCCACUCGUUUUUGUUGUGGUAGGGUUAGGGUUAGGGU [Turkey Lurky]” the “apparent KD of MS2 coat protein” value was 0.0255 µM. “CAAUAAGUAACUGAUACCAGUGUACUGACAUGAGGAUCACCCAUGUUGGGUUUUGUUGUACACCCUUGGCAGCAGAAUCUUAUUG [AstrosExyTheB#12]” was tested, and the “apparent KD of MS2 coat protein” value was 0.0554 µM. With “CGGGCCGCUGCGGAUACCAGUUGAGCAUAGGUAGUGUAUGACAUGAGGAUCACCCAUGUUAACCCUUGGCAGCCGAGAGGGCAGA [theeternabot_exclusion_MS2_Theo_B_13]” the “apparent KD of MS2 coat protein” value was 0.0102 µM. In the case of “AGCGCAUCCGUAUAGGAUGCGCUCCAUGAAGGAGCGCGGGAAACCGCAGGUAGGUCGCGUGACAUGAGGAUCACCCAUGUGUAUU [#17 Same State - Arginine A]”, the “apparent KD of MS2 coat protein” value is reported as 0.0209 µM. “ACAUGAGGAUCACCCAUGUUCCUCUUUGAUACCAGUGAGUUGUUUCGCCCUUGGCAGCGAGUUUUUUUUUUUUUGUUUUGUUUGG [6.R]” was tested, and the “apparent KD of MS2 coat protein” value was 0.264 µM. In the case of “AGCUUGUAGUCGGCCGCCACUAAUAGGGAUCCUAUCGAGGCGGGUAACAUGAGGAUCACCCAUGUUAGGACCGGGACAGCGAGGA [Cetian]”, the “apparent KD of MS2 coat protein” value is reported as 0.0108 µM. With “AGACAUGAGGAUCACCCAUGUAGCAUGGAUACCAGAUGUAGAUUUAUCCCUUGGCAGCUGUGGUAAAGUGAUGCAUUGCUCCUAG [Exclusion - Theophylline A (Freestyle 5)]” the “apparent KD of MS2 coat protein” value was 0.034 µM. For “GCCGGGCCCGCGGCCGCCACUGAGAGAGUCGUGUGAACAUGAGGAUCACCCAUGUAAUAUAUAUACAGGACCGGGCGGGCCCGGC [4.X]”, the “apparent KD of MS2 coat protein” value was 0.0139 µM. “GCGAUGGAGCGAAGGAGCGUGCUGGUACAUGAGGAUCACCCAUGUGAGUCGCAGCGCUAAGCACAGGUAGGUCGCGCUCCAUCGC [EAB NP+V+V2 #11]” was tested, and the “apparent KD of MS2 coat protein” value was 0.0342 µM. With “UAAUACCAGGUCAACGUACCAGGUGAUCAACGAGGACCGGUACGGCCGCCACUCGAAACAUGAGGAUCACCCAUGUAAGACCUGG [|T'-M'-Trp-Ms2|_Design 2_ML2]” the “apparent KD of MS2 coat protein” value was 0.0613 µM. For “GGGACACCGAGAAGGAGCGCAUCCAAACCACACAUGAGGAUCACCCAUGUAUAAAUAUGCAUGCAGGUAGGUCGCUCGGCGUCUC [Orordionbi]”, the “apparent KD of MS2 coat protein” value was 0.111 µM. In the case of “GGUCUCGCGGGCGAUACCAGCUUGAUCGUACUGGCCUGGUACAUGAGGAUCACCCAUGUAAGCCCUUGGCAGCGCGCGCGAGACC [#1 Exclusion - Theophylline B Attempt #5 (HarryS)]”, the “apparent KD of MS2 coat protein” value is reported as 0.0119 µM. In the case of “UGUAUGUGAUCUGAUACCAGCCUCAUAGCUUGAGGAUCACCCAAGUGGAGCGGAAACGCUGGCCCUUGGCAGCAGAUCGCAUACU [TheoBS 1 #AlternativeMS2]”, the “apparent KD of MS2 coat protein” value is reported as 0.516 µM. In the case of “CGGACAUGAGGAUCACCCAUGUACACUGAAGGAGCGUCGAGAACGACAGGUAGGUCGCAGGCUAAGGAAGGUGAUGCUCAAGAAG [Exclusion Arginine A GF5]”, the “apparent KD of MS2 coat protein” value is reported as 0.0236 µM. For “AAAAUCCUACUUGAGGAUCACCCAGGUGAAGGAGCGCCCGAAAGGGCAGGUAGGUCGCACCUGAGGAUCACCCUGGUAAACCUAA [ArgEX 8 #DoubleMS2 #OpenEnded]”, the “apparent KD of MS2 coat protein” value was 0.152 µM. “AGAUGCCACUGUGGAUAGCACGAUGCCGAUACCAGCUAGGAAACUAGCCCUUGGCAGCGGUACAUGAGGAUCACCCAUGUAUCCU [EThA NP+V+V2 #9]” was tested, and the “apparent KD of MS2 coat protein” value was 0.0129 µM. “AAAUAAAUACAUGAGGAUCACCCAUGUGAAGGAGCGCCCGUUAGGGCAGGUAGGUCGCGCAUGAAUAACUCCGUGCAAAAGCACA [ArgEX 19 #OpenEnded]” was tested, and the “apparent KD of MS2 coat protein” value was 0.0196 µM. With “UGCUACAUGAGGAUCACCCAUGUGGGUGAUACCAGCAUUCGUUUAUGCCCUUGGCAGCGCAGCCGAACCAAUCAUUCGGCAGAAA [Artiusar]” the “apparent KD of MS2 coat protein” value was 0.081 µM. For “UGUACUAUGUGAAGGAGCGCCACAUGAGGAUCACCCAUGUAAACAUGAGGAUCACCCAUGUGGCAGGUAGGUCGCACAUAGUACU [ArgBS - Double MS2 - I don't expect this to work]”, the “apparent KD of MS2 coat protein” value was 0.0787 µM.
